The record followed here is patent US20210380691A1 (published 2021).

Common to all, as to test: ELISA (A450)
For one assay, the target named is T1, cynomolgus NKp30 (cynomolgus, UniProt P61483 19-135).
T1 chain: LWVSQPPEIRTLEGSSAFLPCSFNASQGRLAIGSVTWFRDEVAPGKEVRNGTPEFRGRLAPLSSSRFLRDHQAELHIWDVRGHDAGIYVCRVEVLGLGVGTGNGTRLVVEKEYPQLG

The next assay concerns the target T2, human NKp30 (human, UniProt O14931 19-135).
T2 chain: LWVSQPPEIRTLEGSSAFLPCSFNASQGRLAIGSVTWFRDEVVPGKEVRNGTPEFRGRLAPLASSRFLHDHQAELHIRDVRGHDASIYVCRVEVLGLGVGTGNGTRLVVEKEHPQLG

For another assay, the target named is Rat NKp30.

B1: hamster anti-NKp30 antibody 9D9 (antibody, V domains shown)
VH: QIQLQESGPGLVKPSQSLSLSCSVTGFSINTGGYHWNWIRQFPGKKVEWMGYIYSSGTTKYNPSLKSRISITRDTSKNQFFLQLNSVTTEDTATYYCARGDWHYFDYWGQGTMVAVSS
VL: SYTLTQPPLVSVALGQKATIICSGENLSDKYVHWYQQKPGRAPVMVIYENDKRPSGIPDQFSGSNSGNIATLTISKAQAGYEADYYCHCWDSTNSAVFGSGTHLTVL
For B1, the IC50 in the assay with cynomolgus NKp30 and with human NKp30 was 0.89 nM each time.

B2: 9D9-1C1 (antibody, V domains shown)
VH: QIQLQESGPGLVKPSQSLSLSCSVTGFSINTGGYHWNWIRQFPGKKVEWMGYIYSSGTTKYNPSLKSRISITRDTSKNQFFLQLNSVTTEDTATYYCARGDWHYFDYWGQGTMVAVSS
VL: SYTLTQPPLVSVALGQKATIICSGENLSDKYVHWYQQKPGRAPVMVIYENDKRPSGIPDQFSGSNSGNIATLTISKAQAGYEADYYCHCWDSTNSAVFGSGTHLTVL
As for B2, it took 0.32 nM to reach half-maximal inhibition with Rat NKp30 (IC50).
